Measurements from the supplement of paper PMC10724198.
± gives the standard deviation of the averaged measurements.

Tested on: Saccharomyces cerevisiae
Test: protein stability index of tFT-peptide fusion (C-terminal peptide) (PSI (0-1 scale)); higher = more stable (slower turnover)
Details: genetic background: wild type; temperature: 30 C
Procedure: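 MPS profiling in S. cerevisiae of the yeast C-terminome library: the last 12 aa of each annotated ORF are fused to the C-terminus of a sfGFP-mCherry timer, after a GGGS linker. Cells are FACS-sorted into 8 mCherry/sfGFP bins and deep-sequenced. PSI runs from 0 (unstable) to 1 (stable); wild type and das1Δ backgrounds, two technical replicates each.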

Point of comparison: LLPMAFGPSHLN [CDD1 C-terminal 12 aa], protein stability index 0.76 ± 0.045. Against it:
- KTFSYKRPSTFY [RPL20A C-terminal 12 aa] — within error, 0.732 ± 0.039
- KTGKEVRSGKQL [ATX1 C-terminal 12 aa] — lower, 0.679 ± 0.022
- KTYLNFADNGQI [ELM1 C-terminal 12 aa] — within error, 0.721 ± 0.062
- KVESSDCSFEFA [VID24 C-terminal 12 aa] — lower, 0.696 ± 0.011
- KVNENWKRYGYK [FDC1 C-terminal 12 aa] — within error, 0.703 ± 0.027
- KYGIYLKEKTVA [LYS9 C-terminal 12 aa] — lower, 0.4895 ± 0.0018
- KYILAWLRKVLL [YFL012W-A C-terminal 12 aa] — lower, 0.456 ± 0.013
- LAFYLRRLTAKK [RPS8A C-terminal 12 aa] — lower, 0.657 ± 0.0076
- LCHSSHIPETLK [MSN1 C-terminal 12 aa] — lower, 0.663 ± 0.042
- LCKEELKYQAIQ [YMR099C C-terminal 12 aa] — lower, 0.6649 ± 0.0029
- LCQHYIGWCPFW [TOR1 C-terminal 12 aa] — lower, 0.687 ± 0.011
- LDGSREVGAAKS [UME1 C-terminal 12 aa] — lower, 0.7109 ± 0.0018
- LDKELTDGCKQQ [PEX19 C-terminal 12 aa] — lower, 0.684 ± 0.012
- LDKVGKKKGGKK [LRP1 C-terminal 12 aa] — lower, 0.689 ± 0.025
- LDLWRDFLNQAN [IDS2 C-terminal 12 aa] — lower, 0.629 ± 0.029
- LDQFEINSDGEE [NCS2 C-terminal 12 aa] — within error, 0.709 ± 0.012
- LEAATNFLLDSA [EDE1 C-terminal 12 aa] — lower, 0.6796 ± 0.004
- LELEFNSHFELK [HNT3 C-terminal 12 aa] — within error, 0.7 ± 0.041
- LEWLSNSLKNST [ARF1 C-terminal 12 aa] — lower, 0.6802 ± 0.0039
- LFVEETNDIGYK [TRE2 C-terminal 12 aa] — lower, 0.691 ± 0.021
- LFYVMTMTKFLF [PHM6 C-terminal 12 aa] — lower, 0.364 ± 0.0018
- LGDAYVSSDEEF [YEF3 C-terminal 12 aa] — lower, 0.6769 ± 0.0049
- LGEYIEEMNIRS [YBP2 C-terminal 12 aa] — lower, 0.684 ± 0.018
- LGGLLTVLIWFL [KRE1 C-terminal 12 aa] — lower, 0.332 ± 0.014
- LIDSVKKKVNND [SAC3 C-terminal 12 aa] — within error, 0.697 ± 0.069
- LIGGNTNDGLSK [CHA4 C-terminal 12 aa] — within error, 0.722 ± 0.029
- LIMELAVNSQSN [SNF1 C-terminal 12 aa] — within error, 0.691 ± 0.027
- LIQFLEPSKRVA [YPT35 C-terminal 12 aa] — within error, 0.722 ± 0.042
- LITTRTVHRSLD [YEL076C-A C-terminal 12 aa] — lower, 0.6572 ± 0.0041
- LKDLEKLGWKDE [YGR054W C-terminal 12 aa] — lower, 0.666 ± 0.022
- LKKQIFEKVQKE [MET4 C-terminal 12 aa] — lower, 0.635 ± 0.022
- LKPWEGRIYISE [IMA1 C-terminal 12 aa] — lower, 0.6846 ± 0.0068
- LKSLSKYSVQNS [CTF3 C-terminal 12 aa] — within error, 0.678 ± 0.042
- LKTIAAVFSVRV [YJR114W C-terminal 12 aa] — lower, 0.629 ± 0.022
- LLERLSILDRLD [APS2 C-terminal 12 aa] — lower, 0.69 ± 0.013
- LLIPRRILTLDL [PDL32 C-terminal 12 aa] — lower, 0.605 ± 0.036
- LLLLILNECYPA [BUD30 C-terminal 12 aa] — lower, 0.539 ± 0.033
- LLLSFYFDFYPF [YEL050W-A C-terminal 12 aa] — lower, 0.6535 ± 0.0032
- LLSGEPLAKKKE [HMLALPHA2 C-terminal 12 aa] — within error, 0.744 ± 0.036
- LLSVHMYSSSLL [YNL019C C-terminal 12 aa] — lower, 0.671 ± 0.018
- LMETSKDVDSHP [DMA2 C-terminal 12 aa] — within error, 0.729 ± 0.0096
- LPEAPSSQPLQA [TIM17 C-terminal 12 aa] — within error, 0.696 ± 0.03
- LPNVPTVAYVII [YNL319W C-terminal 12 aa] — lower, 0.664 ± 0.024
- LPPEGKPKGKDD [TAZ1 C-terminal 12 aa] — lower, 0.661 ± 0.018
- LQARLNTLKKQT [DID4 C-terminal 12 aa] — lower, 0.604 ± 0.0095
- LQPLIDLDIDNK [ICS2 C-terminal 12 aa] — within error, 0.702 ± 0.041
- LQRLCKKYPEIY [RFA3 C-terminal 12 aa] — within error, 0.703 ± 0.02
- LRIYKNPPLDGP [YJL163C C-terminal 12 aa] — within error, 0.745 ± 0.017
- LRRYEEDLFCTF [IES2 C-terminal 12 aa] — within error, 0.7425 ± 0.0059
- LRWKKRNGIASK [NOP16 C-terminal 12 aa] — lower, 0.663 ± 0.028
- LSHKGIKHLNIT [YGR266W C-terminal 12 aa] — within error, 0.68 ± 0.057
- LSKRRTRLINFN [PXL1 C-terminal 12 aa] — lower, 0.538 ± 0.047
- LSLRTKNTENKE [YGL159W C-terminal 12 aa] — within error, 0.688 ± 0.033
- LSQRVKKEYAAN [COQ21 C-terminal 12 aa] — lower, 0.685 ± 0.0074
- LSSSDDNYGSLA [SNA2 C-terminal 12 aa] — lower, 0.669 ± 0.034
- LTARRKNRQQWE [COX23 C-terminal 12 aa] — within error, 0.692 ± 0.024
- LTINDLDVTFVI [YCR041W C-terminal 12 aa] — lower, 0.71 ± 0.0024
- LTTSVLCCVVFT [CNE1 C-terminal 12 aa] — lower, 0.364 ± 0.0028
- LTYNTSCQRRQK [YOR161W-A C-terminal 12 aa] — within error, 0.717 ± 0.072
- LVSYFLKVQMNL [YNL095C C-terminal 12 aa] — lower, 0.491 ± 0.011
- LYKPSVWDLFEY [FZF1 C-terminal 12 aa] — lower, 0.6818 ± 0.0023
- LYVCIYISAFIK [FYV12 C-terminal 12 aa] — lower, 0.143 ± 0.0053
- MAHRIKNFRDEL [SIL1 C-terminal 12 aa] — lower, 0.672 ± 0.032
- MAINDCFDQAQG [YER076C C-terminal 12 aa] — lower, 0.693 ± 0.012
- MASVVKGNATSA [PHO90 C-terminal 12 aa] — lower, 0.688 ± 0.027
- MDLKRFKGEFSF [PEX5 C-terminal 12 aa] — within error, 0.685 ± 0.036
- MDSRVAHGNILI [SRB5 C-terminal 12 aa] — within error, 0.688 ± 0.092
- MGCIKGTVKTKY [ABZ2 C-terminal 12 aa] — within error, 0.756 ± 0.14
- MIENEKQNPAKQ [OSH6 C-terminal 12 aa] — within error, 0.692 ± 0.028
- MMGFSNFATSKK [SNU23 C-terminal 12 aa] — within error, 0.683 ± 0.035
- MNKKHHKPIPFD [RRD2 C-terminal 12 aa] — lower, 0.697 ± 0.0073
- MPSATTKNPYAQ [CAF120 C-terminal 12 aa] — within error, 0.686 ± 0.034
- MRLLGLTPVERM [YDR341C C-terminal 12 aa] — within error, 0.696 ± 0.034
- MTRLKKLLTLEW [ZIP2 C-terminal 12 aa] — within error, 0.733 ± 0.046
- MVSSLRNANHIF [BCS1 C-terminal 12 aa] — lower, 0.681 ± 0.025
- NAKSKVFSIENN [LSG1 C-terminal 12 aa] — lower, 0.678 ± 0.015
- NCEPIATTFRAN [MGL2 C-terminal 12 aa] — lower, 0.681 ± 0.018
- NDDSKDEDDIIP [MAL33 C-terminal 12 aa] — within error, 0.731 ± 0.056
- NDTEHVTLHTNT [YDL228C C-terminal 12 aa] — within error, 0.688 ± 0.031
- NEASKATGASVH [YOP1 C-terminal 12 aa] — within error, 0.737 ± 0.094
- NGPVNNNAHLVA [FAT3 C-terminal 12 aa] — within error, 0.709 ± 0.049
